Assay [1] addresses rNcSAG1* (recombinant Neospora caninum SAG1, residues 31-317, Strep-tag removed by enterokinase) (Neospora caninum). Nature of the assay: SEC; preparative SEC of the proteins after removal of the Strep-tag with enterokinase, 0.1 M Tris-Cl pH 8.0, 0.15 M NaCl, 1 mM EDTA; unique peak slightly shifted towards smaller size; self-association (dimer). On the technique in general: In gel filtration, larger molecules generally elute earlier.

Assay [2] concerns the target rNcSAG1-ST (recombinant Neospora caninum SAG1, residues 31-317, with C-terminal Twin-Strep-tag) (Neospora caninum). Nature of the assay: SEC; analytical SEC of the re-injected main peak, Superdex 200 Increase 10/300 GL, 0.1 M Tris-Cl pH 8.0, 0.15 M NaCl, 1 mM EDTA, 0.5 ml/min; MW estimated from calibration with LMW and HMW kits; self-association (dimer).
Assay [3] concerns the target rNcSRS2* (recombinant Neospora caninum SRS2, residues 54-401, Strep-tag removed by enterokinase) (Neospora caninum). Nature of the assay: SEC; preparative SEC of the proteins after removal of the Strep-tag with enterokinase, 0.1 M Tris-Cl pH 8.0, 0.15 M NaCl, 1 mM EDTA; unique peak slightly shifted towards smaller size; self-association (dimer).
Assay [4] deals with rNcSRS2-ST (recombinant Neospora caninum SRS2, residues 54-401, with C-terminal Twin-Strep-tag) (Neospora caninum). Nature of the assay: SEC; analytical SEC of the re-injected main peak, Superdex 200 Increase 10/300 GL, 0.1 M Tris-Cl pH 8.0, 0.15 M NaCl, 1 mM EDTA, 0.5 ml/min; MW estimated from calibration with LMW and HMW kits; self-association (dimer).

The values below come from article PMC12365351.

As a reminder, the stoichiometry N is the number of molecules, sites or subunits per partner or assembly.

Turning to “rNcSAG1* (recombinant Neospora caninum SAG1, residues 31-317, Strep-tag removed by enterokinase) (domain or fragment)”, the stoichiometry N in assay [1] is 2.

“rNcSAG1-ST (recombinant Neospora caninum SAG1, residues 31-317, with C-terminal Twin-Strep-tag) (domain or fragment)”: the stoichiometry N in assay [2] was 2.

On to “rNcSRS2* (recombinant Neospora caninum SRS2, residues 54-401, Strep-tag removed by enterokinase) (domain or fragment)”, for which the stoichiometry N in assay [3] was 2.

On to “rNcSRS2-ST (recombinant Neospora caninum SRS2, residues 54-401, with C-terminal Twin-Strep-tag) (domain or fragment)”, for which the stoichiometry N in assay [4] was 2.
